The data set can be described thus: immunofluorescence colocalisation with ER marker PDI (PCC). Conditions: glycan lost; control: wild-type hACE2, DMSO.

Take “human ACE2 (hACE2): N90Q/N322Q/N546Q/N53Q/N103Q”: the localisation_or_trafficking entry is on record as “changes”.

The record behind these values is paper PMC8557876.
